These results are taken from patent publication US20240190940A1 (published 2024).

Test [1] deals with Q61K RAS 10-mer peptide … presented by HLA-A*01:01 on cells (human). Description: cell-based or functional assay.
For test [2], the target named is T1, NRAS Q61K (Q61K RAS; same sequence in KRAS and HRAS Q61K) peptide on HLA-A*01:01 (human).
T1 peptide: ILDTAGKEEY
Description: multimer staining.

In test [3] the target is T2, NRAS Q61R peptide on HLA-A*01:01 (human).
T2 peptide: ILDTAGREEY
In words: cytokine release.

Test [4] concerns the target T3, NRAS Q61K peptide on HLA-A*02:01 (human).
T3 peptide: ILDTAGKEEY
In words: cytokine release.

The target of test [5] is T4, NRAS Q61K peptide on HLA-B*27:01 (human).
T4 peptide: ILDTAGKEEY
In words: cytokine release.

Test [6] concerns the target T5, NRAS Q61K peptide on HLA-B*08:01 (human).
T5 peptide: ILDTAGKEEY
In words: cytokine release.

Test [7] addresses T6, NRAS Q61K peptide on HLA-C*07:01 (human).
T6 peptide: ILDTAGKEEY
In words: cytokine release.

B1: TCR 3795, cysteine-substituted, LVL-modified chimeric TCR (human variable regions, murine constant regions) (TCR)
TCR alpha: AQKVTQAQTEISVVEKEDVTLDCVYETRDTTYYLFWYKQPPSGELVFLIRRNSFDEQNEISGRYSWNFQKSTSSFNFTITASQVVDSAVYFCALSESHNNAGNMLTFGGGTRLMVKPNIQNPEPAVYQLKDPRSQDSTLCLFTDFDSQINVPKTMESGTFITDKCVLDMKAMDSKSNGAIAWSNQTSFTCQDIFKETNATYPSSDVPCDATLTEKSFETDMNLNFQNLLVIVLRILLLKVAGFNLLMTLRLWSS
TCR beta: NAGVTQTPKFQVLKTGQSMTLQCAQDMNHNSMYWYRQDPGMGLRLIYYSASEGTTDKGEVPNGYNVSRLNKREFSLRLESAAPSQTSVYFCAASQNTEAFFGQGTRLTVVEDLRNVTPPKVSLFEPSKAEIANKQKATLVCLARGFFPDHVELSWWVNGKEVHSGVCTDPQAYKESNYSYCLSSRLRVSATFWHNPRNHFRCQVQFHGLSEEDKWPEGSPKPVTQNISAEAWGRADCGITSASYQQGVLSATILYEILLGKATLYAVLVSTLVVMAMVKRKNS
Turning to B1, the 4-1BB upregulation by TCR-transduced CD8+ effector cells (flow cytometry), autologous DC pulsed with various peptide concentrations in test [1] was above 0.01 µg/ml.

B2: 3795 (TCR, V domains shown)
Valpha: AQKVTQAQTEISVVEKEDVTLDCVYETRDTTYYLFWYKQPPSGELVFLIRRNSFDEQNEISGRYSWNFQKSTSSFNFTITASQVVDSAVYFCALSESHNNAGNMLTFGGGTRLMVKP
Vbeta: NAGVTQTPKFQVLKTGQSMTLQCAQDMNHNSMYWYRQDPGMGLRLIYYSASEGTTDKGEVPNGYNVSRLNKREFSLRLESAAPSQTSVYFCAASQNTEAFFGQGTRLTVV
With B2, the binding result in test [2] is listed as “recognises”; in test [3], “no recognition”; in test [4] it was “no recognition”; in test [5] it was “no recognition”; in test [6] it was “no recognition”; in test [7], “no recognition”.
